Data set [1] concerns Histone octamer with H4K77succ (Xenopus laevis). Put plainly: FRET salt titration. The conditions noted are these: LexA FRET: 10 nM nucleosome, 0-100 uM LexA, 0.5x TE, 75 mM NaCl, 10 min, nucleosomes reconstituted by KCl step dialysis (2 M to 10 mM), 10 mM Tris-HCl pH 7.8 ….
Data set [2] relates to Histone octamer, H2B T112C or end-label DNA FRET, unmodified H4 (Xenopus laevis). Put plainly: FRET salt titration. The conditions noted are these: C1/2 is the NaCl concentration for 50% FRET loss, LexA FRET: 10 nM nucleosome, 0-100 uM LexA, 0.5x TE, 75 mM NaCl, 10 min, nucleosomes reconstituted by KCl step dialysis (2 M to 10 mM), 10 mM Tris-HCl pH 7.8 ….
The test system of a further data set is LexA. The data set is described as follows: FRET LexA titration. Conditions: 75 mM NaCl, absolute S1/2 only in figure, LexA FRET: 10 nM nucleosome, 0-100 uM LexA, 0.5x TE, 10 min, nucleosomes reconstituted by KCl step dialysis (2 M to 10 mM), 10 mM Tris-HCl pH 7.8 …, scale: % decrease of S1/2 vs unmodified nucleosome.

The source of these data is article PMC7515725.

Regarding Widom 601, end-labelled, the K half in data set [1] (C1/2 is the NaCl concentration for 50% FRET loss, 14.8% lower than unmodified) was 0.529 M NaCl; in data set [2] (not a protein Kd), 0.621 M NaCl.
For the substance “601 DNA with LexA site, in H4K77succ nucleosome”, in the data set with LexA, the binding signal is 45.5.
MMTV-B: in data set [1] (NaCl titration), the binding signal (% decrease of C1/2 vs unmodified) was determined as 9. For the same substance, in data set [2], the K half is 0.475 M NaCl.
